Experimental data reported in patent US20240132578A1.

Columns and labels:
[1] = target: HIV-1 JR-CSF Env I309A (HIV-1 (isolate JR-CSF, clade B)) (UniProt P20871); assay: cell-based or functional assay
[2] = target: HIV-1 MGRM-D-001 Env (HIV-1); assay: cell-based or functional assay
[3] = target: HIV-1 JR-CSF Env H330A (HIV-1 isolate JR-CSF) (UniProt P20871); assay: cell-based or functional assay
[4] = target: HIV-1 envelope glycoprotein (Env) of isolate 92BR020, on pseudovirus (HIV-1); assay: cell-based or functional assay
[5] = target: HIV-1 JR-CSF Env T388A (HIV-1 isolate JR-CSF) (UniProt P20871); assay: cell-based or functional assay
[6] = target: HIV-1 envelope glycoprotein (Env) of isolate MGRM-Chronic-B-010, on pseudovirus (HIV-1); assay: cell-based or functional assay
[7] = target: HIV-1 JRFL Env (HIV-1); assay: cell-based or functional assay
[8] = target: HIV-1 APV17 Env (HIV-1); assay: cell-based or functional assay
[9] = target: HIV-1 JR-CSF Env F317A (HIV-1 (isolate JR-CSF, clade B)) (UniProt P20871); assay: cell-based or functional assay
[10] = target: HIV-1 JR-CSF Env T341A (HIV-1 isolate JR-CSF) (UniProt P20871); assay: cell-based or functional assay
[11] = target: HIV-1 MGRM-AG-005 Env (HIV-1); assay: cell-based or functional assay
[12] = target: HIV-1 JR-CSF Env N332A (HIV-1 isolate JR-CSF) (UniProt P20871); assay: cell-based or functional assay
[13] = target: HIV-1 envelope glycoprotein (Env) of isolate MG RM-A-002, subtype A (HIV-1); assay: cell-based or functional assay
[14] = target: HIV-1 JR-CSF Env I323A (HIV-1 (isolate JR-CSF, clade B)) (UniProt P20871); assay: cell-based or functional assay
[15] = target: HIV-1 JR-CSF Env N295A (HIV-1 (isolate JR-CSF, clade B)) (UniProt P20871); assay: cell-based or functional assay
[16] = target: HIV-1 JR-CSF Env R327A (HIV-1 isolate JR-CSF) (UniProt P20871); assay: cell-based or functional assay
[17] = target: HIV-1 JR-CSF Env Q337A (HIV-1 isolate JR-CSF) (UniProt P20871); assay: cell-based or functional assay
[18] = target: JR-FL GP120 ΔV3 (HIV-1 JR-FL); assay: ELISA, antigen-coated wells, mAb titrated; EC50 by nonlinear regression
[19] = target: HIV-1 APV17 envelope glycoprotein (Env) on pseudovirus (HIV-1); assay: cell-based or functional assay
[20] = target: HIV-1 MGRM-A-010 envelope glycoprotein (Env) on pseudovirus (HIV-1); assay: cell-based or functional assay
[21] = target: HIV-1 CMU02 envelope glycoprotein (Env) on pseudovirus (HIV-1); assay: cell-based or functional assay
[22] = target: HIV-1 93IN905 envelope glycoprotein (Env) on pseudovirus (HIV-1); assay: cell-based or functional assay
[23] = target: HIV-1 93UG077 envelope glycoprotein (Env) on pseudovirus (HIV-1); assay: cell-based or functional assay
[24] = target: HIV-1 APV6 envelope glycoprotein (Env) on pseudovirus (HIV-1); assay: cell-based or functional assay
[25] = target: HIV-1 MGRM-C-028 envelope glycoprotein (Env) on pseudovirus (HIV-1); assay: cell-based or functional assay
[26] = target: HIV-1 MGRM-C-026 envelope glycoprotein (Env) on pseudovirus (HIV-1); assay: cell-based or functional assay
[27] = target: HIV-1 MGRM-C-027 envelope glycoprotein (Env) on pseudovirus (HIV-1); assay: cell-based or functional assay
[28] = target: HIV-1 MGRM-AG-005 envelope glycoprotein (Env) on pseudovirus (HIV-1); assay: cell-based or functional assay

Substance: 4858_P08 (PGT-123) (antibody)
- Fold IC50 increase relative to wild-type [1]: 1.6 fold
- IC50, pseudovirus neutralization [2]: 0.215 µg/mL
- Fold IC50 increase relative to wild-type [3]: 0.3 fold
- IC50, pseudovirus neutralization [4]: 0.008 µg/mL
- Fold IC50 increase relative to wild-type [5]: 0.2 fold
- IC50, pseudovirus neutralization [6]: 0.009 µg/mL
- IC50, pseudovirus neutralization [7]: 0.0283 µg/mL
- IC50, pseudovirus neutralization [8]: 0.18 µg/mL
- Fold IC50 increase relative to wild-type [9]: 3.1 fold
- Fold IC50 increase relative to wild-type [10]: 0.3 fold
- IC50, pseudovirus neutralization [11]: 0.104 µg/mL
- Fold IC50 increase relative to wild-type [12]: > 200 fold
- IC50, pseudovirus neutralization [13]: 0.011 µg/mL

Substance: 5145_B14 (PGT-127) (antibody)
- Fold IC50 increase relative to wild-type [1]: 6 fold
- Fold IC50 increase relative to wild-type [3]: 0.5 fold
- IC50, pseudovirus neutralization [4]: 0.059 µg/mL
- Fold IC50 increase relative to wild-type [5]: 0.5 fold
- IC50, pseudovirus neutralization [6]: 0.019 µg/mL
- Fold IC50 increase relative to wild-type [14]: 4 fold
- Fold IC50 increase relative to wild-type [15]: 2.3 fold
- Fold IC50 increase relative to wild-type [16]: 1.8 fold
- Fold IC50 increase relative to wild-type [12]: > 100 fold
- IC50, pseudovirus neutralization [13]: 9.42 µg/mL
- Fold IC50 increase relative to wild-type [17]: 0.5 fold

Substance: 5343_B08 (PGT-135) (antibody)
- EC50 [18]: 0.2 µg/mL
- Neutralization IC80 [19]: > 10 µg/mL
- Neutralization IC90 [19]: > 10 µg/mL
- Neutralization IC95 [19]: > 10 µg/mL
- neutralization IC50 [19]: > 10 µg/mL
- Neutralization IC80 [20]: > 10 µg/mL
- Neutralization IC90 [20]: > 10 µg/mL
- Neutralization IC95 [20]: > 10 µg/mL
- neutralization IC50 [20]: > 10 µg/mL
- Neutralization IC80 [21]: > 10 µg/mL
- Neutralization IC90 [21]: > 10 µg/mL
- Neutralization IC95 [21]: > 10 µg/mL
- neutralization IC50 [21]: > 10 µg/mL
- Neutralization IC80 [22]: 0.0648 µg/mL
- Neutralization IC90 [22]: 0.136 µg/mL
- Neutralization IC95 [22]: 0.268 µg/mL
- neutralization IC50 [22]: 0.0183 µg/mL
- Neutralization IC80 [23]: > 10 µg/mL
- Neutralization IC90 [23]: > 10 µg/mL
- Neutralization IC95 [23]: > 10 µg/mL
- neutralization IC50 [23]: > 10 µg/mL
- Fold IC50 increase relative to wild-type [3]: > 250 fold
- Fold IC50 increase relative to wild-type [5]: 0.1 fold
- Neutralization IC80 [24]: > 10 µg/mL
- Neutralization IC90 [24]: > 10 µg/mL
- Neutralization IC95 [24]: > 10 µg/mL
- neutralization IC50 [24]: > 10 µg/mL
- Neutralization IC80 [25]: > 10 µg/mL
- Neutralization IC90 [25]: > 10 µg/mL
- Neutralization IC95 [25]: > 10 µg/mL
- neutralization IC50 [25]: 2.16 µg/mL
- Neutralization IC80 [26]: 0.0562 µg/mL
- Neutralization IC90 [26]: 0.139 µg/mL
- Neutralization IC95 [26]: 0.331 µg/mL
- neutralization IC50 [26]: 0.0123 µg/mL
- Fold IC50 increase relative to wild-type [15]: > 18 fold
- Fold IC50 increase relative to wild-type [10]: 0.6 fold
- Neutralization IC80 [27]: > 10 µg/mL
- Neutralization IC90 [27]: > 10 µg/mL
- Neutralization IC95 [27]: > 10 µg/mL
- neutralization IC50 [27]: > 10 µg/mL
- Fold IC50 increase relative to wild-type [16]: 0.67 fold
- Neutralization IC80 [28]: > 10 µg/mL
- Neutralization IC90 [28]: > 10 µg/mL
- Neutralization IC95 [28]: > 10 µg/mL
- neutralization IC50 [28]: > 10 µg/mL
- Fold IC50 increase relative to wild-type [12]: > 250 fold
- Fold IC50 increase relative to wild-type [17]: 2.1 fold
